The record followed here is PMC12802541.

Some results are limits rather than exact numbers.

Assay [1] has as its target Rabbit skeletal actin (rabbit) (UniProt P68135). As to the kind of experiment: TIRF microscopy; 50 nM phosphorylated NM2 filaments added to anti-parallel actin arrays anchored by their barbed ends on patterned formin; MB150 (150 mM KCl, 5 mM MgCl2, 0.1 mM EGTA, 20 mM MOPS, pH 7.4), 1 mM ATP, 1 mM DTT, 0.6% methylcellulose, 30 °C.
For assay [2] the target is unchanged.

In assay [1], “Non-muscle myosin 2B, Halo-tagged, phosphorylated, pre-polymerized filaments (from UniProt P35580 1-1976; P60660 1-151; O14950 1-172) (complex)” had a dwell time (lifetime of attachment) above 15 min.
“TsMod NM2A (non-muscle myosin 2A with an embedded FRET-based tension sensor module), RLC phosphorylated (from UniProt P35579 1-1960; P60660 1-151; O14950 1-172) (complex)” came in with a fraction of tension sensor modules that are tensed (amplitude of the long lifetime component, global fit of FLIM) on patterned actin bundles in assay [2] of 80%.
